# Measured values: the DeepSol protein solubility set
# Test: soluble on expression in E. coli; label from the status in PepcDB or PDB records
row,Sequence,soluble on expression in E. coli
1,MSLGKSNVLVTMPVAPTMEVKSFPILDQCVGQVGLNFELSFTGAPPYYYNTKIYKLENGERKLYDAKRYTSEGTRNRFSYSPPKEGNYEIVFDTVSNKLFTEPIKLEPVKEYTFKTSMRVKPSASLKLHHDLKLCLGDHSSVPVALKGQGPFTLTYDIIETFSSKRKTFEIKEIKTNEYVIKTPVFTTGGDYILSLVSIKDSTGCVVGLSQPDAKIQVRRDIPSAAFNFFEPIKEAKIKHGSVTEIPLKLSGEGPFTVKFKHMDYDGNIVKEFENKFQNSYKPALKVSKEGLYQLVDIRDSSCQGNVIYRNSLYKVSFLEKPKFAIQDNHHITKVTENLFSKEEVCQGMEGTVDLALFGSPPFILEYDLMAPNGHISTKKIQVATKYASLKLPNQIPGEYITTIKAIFDGNYGESDIHFREHQSELIIKQTVHPIPDVAFADGGKTLRACAANVDQISFLEPINLKFLQGESPFSITFSVYHESTSRTDQYTIDNIDSENFSFEKLYEGMKLGNHAITIDSVVDANGCVNSLISGPRNQILVSITDAPKIHILDPSTEYCVGDYVAYQLNGVAPFMIKYEFNGIPLKSKERSSQFVRLASEPGIISITSLQDSSSQCIVDFTNPKLKSEFDDEGHHHHHH,soluble
2,MGVALAAMCLMSAQAQRRNEIQVPNLNGYTTLKCDFHMHSVFSDGLVWPTVRVDEAYREGLDAISLTEHIEYRPHKKDIIADHNRSYELSQKQAKKLGILLIRGSEITRSMPPGHFNAIFLNDSNPLEQKAYKDAFNEAKKQGAFIFWNHPGWARQQPDSTLWWPEHTQLYNDGCMHGIEVANGGLFMPEAIQWCLDKNLTMIGTSDIHQPIQTDYDFSKGEHRTMTFVFAKERSPEGIREALDNRRTAVYYRELVIGREEILRPFFEKCVDIKEVKRTEKEVTFSVMNATDLVLKLKKTAHDPSLVYFREMTLKPHTQHTISVKFDNGIKGGDCNFEVTNFIVAPDKGLDYTIKL,not soluble
3,MSLAQSVAGSSVLTPGLTVSGPHSHARHSATLPSAMTAFPAAPDLAPPSRAAQGERVLCAMSGGVDSSVTASLLKEQGYQVIGAMMRFWPDDKRTDTFDSCCSPDAAYEARRVAEQVGVPFYLLDYREPFQRHIVGPFLEEYARGRTPNPCVNCNTKVKFDELVKKAKMLGCRYVATGHYVKRVDNAQGEVEFHRGDDPRKDQTYFLWGTPRDALPYILFPVGELEKPQVREIAAERGLLTAQKPESQNICFVPGKVQDFVAEHLPQAQGYIREIATGEVVGEHLGTQFYTLGQKKGLGLYQSHRVRHVVHLDPDSNTVWVGDYDDCLWTGLKATDANYLLDLAELPTELEVQVRYRTAPVKAHVLHADAEGFELEFAEPQFAVAPGQSAVLYAGSRLLGGGLIADHARELPALTEGHHHHHH,soluble
4,SLKKILILDDETSVLNALQRQLIRNNWQVISFKHPATALDYAKHVFFPIVITDYRMPQMSGVEFLLEFQKLQPYAYKIMLSGQAGEYGMTEAINQAKIDYFIHKPWDNCQLLNQIDKGLNHYRQTIKHLLKTNSKRMSREDYLIWYEKLVEQACPSITKVKKNPLGWIEAEEG,not soluble
5,MSLTQDYELVVKGVRNFENKVAVTVALRDKKRFDGEIFDLDISLDRVEGAALEFYEAAARMRIRQVFLDVAAGLCVGDEQSPEKRPIILEAQNVWITYKGKLPGRITGSLKTPPTALRSEGHHHHHH,not soluble
6,MGSDKIHHHHHHMIINRSKDSSSNEISFVSKDMGFLLTQSEVSYNFKDKLVEDIAKQVFAENRLSVGTIAKTNVKYTKMFIGVNGYDTIMSAYTEASKKTKKKYMIEANLDKFNVIEKGTVTLSVMFEEGFNIINTTFSESMENVKNKVIVVDQYGSKISEKIDNEIFKEVNVIMQKVIQQQENQDVDIDSEFNGIEKSCSLKGYGDVSCITGRGVKVKDSYTKLVGLFYIDTDKHTWQNGEYQIELELNFQNLMDEKSAGQDEPKEESNLGGEDYAGGKEFTAEFTAYCPRKEEGGDTDCRKKKLDPSKKTCAAPMVGKYEQTYYTKEFLNKHPLLNYGDEIQVITGVSGRDGVYKVNDVGPAITIEKNGTYHIDILFGNVEEASKFGRRKGKIIIGGYSGNVSDKAKIVISEAKKHLGKPYKWGGNGPSSFDCSGLMVYCFKKVNVSLPRTSNQQSKKGKKVEQKNLQAGDLVFFHNPVSHVGLYIGNGEFLHAPQKGDVVKISKLSSRRDFNTARRVL,not soluble
7,DAPLNSVEGFIRQVLGWREFLRHVYRREMPSLAEANQLGANEALPDFYWNGDTDMACLSDVVDGVRERGYSHHIERLMILANFGLIYGVEPAQLNRWFHAGYVDAFHWVTTPNVVEMGLYGAGVFATKPYASSANYVDKMSDYCSGCPYYKTKTTGDGACPFNALYWDFLDRNEETLRSNHRMGLMYSHVDNKSDEELGEIRERAAEIREMATKGE,not soluble
8,MGSDKIHHHHHHMPVIKFSYGDSMSTPLDSDLLRTFLAVADTGNLTRAADTVRRTQSAVSMQIRKLEELIGSALFERHSRGVILTDDGRRLADNARRIVSLLDDTAAAMRSPALEGSVRIGISEEYVNSTLPKALGAFAAIHPGVEVTVRQETSMANSAALAAGELDIAVVFEPGGRSRNEVLMVNPTVWATCDQHGAHERRPVPIATYTYAEGGWCDELARRSLQSRGIESRIAYVSRTSGGLIAALISGLAIAPLSRTAIPAGCRELTEEDGFGIIDMTNVVLRTRRGNRSPTVDAMADAIRRAFRAPAEKEKEEVRSTTTDG,not soluble
9,MYVAVKGGEKAIDNAHRLLARKRRGDTALPELSVEQIRQQMPLAVSRVMTEGSLYDEQLAALAIKQAAGDLMEAIFLLRAYRTTLPRFAASLPLDTAGMRLQRRISATYKDLPGGQLLGPTFDYTHRLLDFSLLAEGDYPGPEVERGASLEPCPRVLGLLDREGLMTPEYELPGAVPDITREPLDFPTGRAQRLQALARGDEGFLLALGYSTQRGYGRNHPFAGEIRIGACEVWLEPEELGFAVPVGEIEVTECEMVNQFVGSREELPQFTRGYGLAFGYAERKAMGMALVDRALRAEEYGEEVVSPAQQEEFVLMHCDNVEAGGFVSHLKLPHYVDFQSELELIRKLRRPGVAESAQPTVQEKRA,not soluble
10,MGSDKIHHHHHHMGVDPFERNKILGRGINIGNALEAPNEGDWGVVIKDEFFDIIKEAGFSHVRIPIRWSTHAYAFPPYKIMDRFFKRVDEVINGALKRGLAVVINIHHYEELMNDPEEHKERFLALWKQIADRYKDYPETLFFEILNEPHGNLTPEKWNELLEEALKVIRSIDKKHTIIIGTAEWGGISALEKLSVPKWEKNSIVTIHYYNPFEFTHQGAEWVEGSEKWLGRKWGSPDDQKHLIEEFNFIEEWSKKNKRPIYIGEFGAYRKADLESRIKWTSFVVREMEKRRWSWAYWEFCSGFGVYDTLRKTWNKDLLEALIGGDSIE,not soluble
11,MDPNKFREKEISKKEALELFEDNEIIFELFKFADSLRREEVGDIVTYVVNRNINFTNICVGNCRFCAFRANENDKHAYFLDIDEIAKRAVEAKKFGCTEVCIQGGLHPKIDTYYQAEILKAVHEATKPYGDIHIHAFSPMEVYFGAENAGLDIKEALKILKENGLNSMPGTAAEILDDDIRAELCPNKIKTKEWIYIIKEAHKLGIPTTATMMYGHIEEYKHWVNHLFIIKEIQEETNGFTEFVPLSFMHKYAPIYKEGKAKAGATGIEDLKVFAVSRIIFKGLIKNIQASWVKLGKKMVQVALRCGANDVGGTLIEESISRSAGAEHGVYMSVEEIRDMIKRVGLIPKERTTLYKILE,not soluble
12,MGHHHHHHSHMLLAASKVLDRLKPVIGVNTDPERSEGHLCLPVRYTHSFPEALQKFYRGEFRWLWRQRIRLYLEGTGINPVPVDLHEQQLSLNQHNRALNIERAHDERSEASGPQLLPVRALNEVFIGESLSSRASYYEISVDDGPWEKQKSSGLNLCTGTGSKAWSFNINRVATQAVEDVLNIAKRQGNLSLPLNRELVEKVTNEYNESLLYSPEEPKILFSIREPIANRVFSSSRQRCFSSKVCVRSRCWDACMVVDGGTSFEFNDGAIASMMINKEDELRTVLLEQ,not soluble
13,MGSDKIHHHHHHMLDKKTDILLAARKLFSEKDFTSVSMQAIAEECKMSKASIYKLFQSKEDLLLELLSFNQKQMVAAASRLQENTALTPEERLTQKVKMELEGFRRNQQFFNMLTYGNPRLHNDRVKQHIHQTRSTIICWHRDSLIQAYGETILPFVWDLVIILHGMMREFLMLIKIEEKPLELDPIAEFIISTLNQIIKNRETRQSLLPPEAIELYIHSASSYKPKDKSVLLSESLKELHKGISSLSAADYDVDELTSAAAMLEEEAKKEEPRAFLLKSLIGYLEQTGVLTQPVSMLKTLLIT,not soluble
14,MGSDKIHHHHHHMSQIPVAEKLVGALSSGLAVLRYLAGMPTPVGVTRVARDLELNSSTCFNLLKTLVHEGLVTFDERTKTYTIGIGLVELAKGALDQASFARLLRPQLESIAQQHKVTATLWERTRNERVVLVDLADNPAAMRVHMSIGQRLPMYLAALGRCMAAYSELSADELRTRIESFRWENAPSFEEYYAEVQDVKERGYAVDNGNYVKGVTTVSAPVIDANKRAVMAISAVSFSAQLNRAAIRALGEDLGARAIEASRAISGRVRAA,not soluble
15,SDSAWTALDMETQTMLKTAIKDPKTVDLEKLSNAVVEHSLKDLSFCKDAGRMCYAVVQAEAQKTASSVFRRNLLNRLQQEFIAREETRKRSMQEWVCVVTFICSIFDYIKVNNSPIAALVDPVYDCLFRLAQPDSLMNEEEVDCLVVQLHRVGEQLEQTNSERMNQLFYLLRDGFLLQEDLSSMTRLLLLEILEFRASGWTLSETAHKYYYSEVAD,soluble
16,SLIENVDAQADSSWPHRGQIEVRNLTVKYTEAGHAVLKNLSFSAEGRQRVGILGRTGSGKSSLFNALLKLVYTDGEISIDGVNWNKMPLEKWRKAFGVVPQKVFIFTGPLRMNLDPYGCHSDEELWRVAEEVGLKTVIEQFPDKLDFQLEYGGYVLSNGHKQLICLARSILSGARILLLDEPSAHLDPVTIKVLKKTLRQSFSTCTILLSEAKVEPLLECDSFLMMDKGQVKTYDSIQKLLNETSDLKQAISPAE,soluble
17,MDIDYTVGEVELSYKPKFKNIYKVVSSEDAYKYLLPTYKEGTICYKEYFKVLFLNQASQVLGYTLISEGGITDTTVDVRVILQAALLTNSVAIILAHNHPSGSMKPSRQDMEITKQVKEAARLMRITVTDHLILTDAGYYSFADEGEL,not soluble
18,DDYDQSLCSTGFYVVRSNQINPETLLTLFKSLPIQQLLKKACSGTILTGIGKQEFEKIPIPLIRPEVQEEIAQHVQRSFALRKEASELLEKAKLSVEYAIETGGGNSLIYSGLLNTLAKYERLAMWLLLKELGIVDESPNRQRVVTTEKRLSESFFTSGRLDAEYYQPKYDYLDAQFSSIPTKRLGDIVNIHKSIEPGSDAYQENGIPFVRVADLSKFGIETSSICLDSSTYSTAPRPRKNTILLSKDGSVGIAYKMEEDADIITSGAILHLSMKGKELLPDYLTLVLNSPIVRMQAERDAGGSIIQHWKPSEISQVIIPMLPVYIQQKLSDLVSKSFAFRRESKALLERAKAMVEQAIEFSA,not soluble
19,GIYQHFSIEDRPFLDKGMEWIKKVEDSYAPFLTPFINPHQEKLLKILAKTYGLACSSSGEFVSSEYVRVLLYPDYFQPEFSDFEISLQEIVYSNKFEYLTHAKILGTVINQLGIERKLFGDILVDEERAQIMINQQFLLLFQDGLKKIGRIPVSLEERPFTEKID,soluble
